From patent publication US8609353B2, “Diagnostics and methods for removal and detection of interferents” (Systagenix Wound Management (US), Inc., priority 2007, dated 2013)
Primed or numbered codes have the meaning given here. * marks the point of attachment. Dabcyl″ = label, CN(C)c1ccc(/N=N/c2ccc(C(=O)*)cc2)cc1

What was measured:
[1] = target: T1, human neutrophil elastase (Homo sapiens, UniProt P08246); test: FRET protease assay of bacterial peptide substrates with human neutrophil elastase (cross-reactivity); assay type: biochemical
T1 sequence (P08246 30-267): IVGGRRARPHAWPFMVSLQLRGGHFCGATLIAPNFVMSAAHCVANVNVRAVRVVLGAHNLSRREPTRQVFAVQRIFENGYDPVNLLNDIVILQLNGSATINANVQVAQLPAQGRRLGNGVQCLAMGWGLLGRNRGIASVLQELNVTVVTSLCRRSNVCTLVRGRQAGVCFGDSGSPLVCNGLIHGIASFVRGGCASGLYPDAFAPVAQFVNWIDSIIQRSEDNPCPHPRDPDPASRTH
Protocol: Based on the concentration of elastase from human wound fluid, it was determined whether this amount of elastase (0-50 μg/ml) would cause false positives in a protease assay using fluorescence resonance energy transfer (FRET) with peptides that are specific substrates for bacteria (FIGS. 3A-3C). Broad spectrum pathogen peptides such as CPI2 (peptide sequence EGAMFLEAIPMSIPK (referred to herein as SEQ ID NO: 3)) (that reacts with Staphylococcus aureus, Proteus mirabilis, Pseudomonas aeruginosa, Enterococcus faecalis, and Streptococcus pyogenes) were studied. Specific peptides for Pseudomonas aeruginosa (E8 (peptide sequence […] (referred to herein as SEQ ID NO: 4)) and G6 (peptide sequence EAAHQSALQSAK (referred to herein as SEQ ID NO: 5))), Staphylococcus aureus (SAP2 (peptide sequence […] (referred to herein as SEQ ID NO: 6)), Escherichia coli (T2 (peptide sequence EVSRRRRRGGK (referred to herein as SEQ ID NO: 7)) and T3 (peptide sequence KKASEVSRRRRRGGK (referred to herein as SEQ ID NO: 8)) were also studied. The […] were tested with three concentrations of human neutrophil elastase. The peptide substrates were tested in the FRET format with the fluorescent dye Edans attached to one end of the peptide and the quencher Dabcyl attached to the other end of the peptide. In this FRET assay format, amino acids are added to the terminals of the peptides to introduce the FRET assay dye. For example, an “E” is added to the N terminal and a “K” is added to the C terminal. For example, the “E” can be (E-EDANS) and the “K” can be (K-Dabcyl). Cleavage of the peptide substrate by human neutrophil elastase will produce a fluorescent signal.

[2] = tested on: Pseudomonas aeruginosa; test: HE1-Affigel bead HRP release specificity test with overnight grown culture; assay type: biochemical; conditions: 100 μl overnight grown culture; ABTS over 5 minutes
Protocol: (§1) Specificity was tested with 20 μl of a 1:10 dilution of the Affigel beads reacted with 100 μl media control or overnight grown culture of Pseudomonas aeruginosa, Streplococcus pyogenes, Escherichia coli, and Enterococcus faecalis in 200 μl total volume, as described above. The samples were spun down and a 20 μl aliquot measured in 500 μl total volume ABTS over 5 minutes.

[3] = target: T2, elastase (Homo sapiens, UniProt P08246); test: HE1-Affigel bead HRP release spin through assay with elastase; assay type: biochemical; conditions: 5 μg/ml elastase, 5 minutes; ABTS substrate over 5 minutes
T2 sequence (P08246 30-267): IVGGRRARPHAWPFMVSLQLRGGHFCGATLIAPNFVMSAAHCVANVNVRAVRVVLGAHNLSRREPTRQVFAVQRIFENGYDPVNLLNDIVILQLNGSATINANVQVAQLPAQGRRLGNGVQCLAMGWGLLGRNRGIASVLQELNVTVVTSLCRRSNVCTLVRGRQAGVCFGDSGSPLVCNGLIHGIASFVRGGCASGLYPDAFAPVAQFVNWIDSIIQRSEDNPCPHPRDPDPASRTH
Protocol: The peptide was tested for activity by conjugating one end to Affigel 10 beads (BioRad) and the other end to HRP reporter enzyme. The sequence of the HE1 peptide used for this assay was H2N-PFPQANYITYC-OH) (SEQ ID NO: 9). The activity was measured by detecting the release of HRP from the beads in a spin through assay. Testing was performed with 20 μl of a 1:10 dilution of HE1-Affigel beads reacted with 5 μg/ml elastase in 200 μl total volume for 5 minutes.

[4] = tested on: bacterial proteases; test: HE1 specificity versus bacterial proteases; assay type: biochemical
Protocol: as §1

[5] = target: T3, papain (Carica papaya, UniProt P00784); test: PAIN1 FRET assay with papain-containing ointment ACCUZYME; assay type: biochemical; conditions: 10 μl of 120 mg/ml ACCUZYME, over one hour
T3 construct: purchased DPT Laboratories ACCUZYME
T3 sequence (P00784 134-345): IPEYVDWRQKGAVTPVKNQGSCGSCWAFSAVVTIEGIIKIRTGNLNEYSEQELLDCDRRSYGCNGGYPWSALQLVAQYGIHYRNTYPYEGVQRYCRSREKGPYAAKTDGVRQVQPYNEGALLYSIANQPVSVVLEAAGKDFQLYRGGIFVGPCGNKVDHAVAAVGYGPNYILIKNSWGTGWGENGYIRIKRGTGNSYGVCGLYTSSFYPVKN
Protocol: (§2) PAIN1 was designed from a high throughput screen. The peptide was tested in the FRET format with the fluorescent dye Edans attached to one end of the peptide and the quencher Dabcyl attached to the other end of the peptide. The sequence of the PAIN1 peptide used for this assay was NH2-E(Edans) PMPPLCTSMK(Dabcyl)-COOH (SEQ ID NO: 10). Cleavage of the peptide substrate by papain will produce a fluorescent signal. The peptide was tested using 5 μl of a 5 mg/ml solution with 10 μl of overnight grown bacterial culture or with 10 μl of 120 mg/ml ACCUZYME®, a papain-containing debriding ointment (DPT Laboratories), in 100 μl total volume. The bacteria cultures tested were Pseudomonas aeruginosa (PA14), Streptococcus pyogenes (grown in BHI and TSB media), E. coli, Enterococcus faecalis, and Serratia marcesens. The relative fluorescence is shown over one hour. […] In particular, the bacteria that appear to cross-react the most with PAIN1 were Pseudomonas aeruginosa and Streptococcus pyogenes.

[6] = tested on: Streptococcus pyogenes; test: PAIN1 FRET assay with overnight grown bacterial culture; assay type: biochemical; conditions: 10 μl overnight grown culture, over one hour
Protocol: as §2

[7] = tested on: Pseudomonas aeruginosa (PA14); test: as above; assay type: biochemical; conditions: 10 μl overnight grown culture, over one hour
Protocol: as §2

[8] = target: T4, G6 (peptide sequence EAAHQSALQSAK)
T4 chain: EAAHQSALQSAK

[9] = target: T5, T2 (peptide sequence EVSRRRRRGGK)
T5 chain: EVSRRRRRGGK

[10] = target: T6, E8 (peptide sequence EQADALHDQASALK)
T6 chain: EQADALHDQASALK

[11] = target: T7, SAP2 (peptide sequence ETKVEENEAIQK)
T7 chain: ETKVEENEAIQK

[12] = target: T8, CPI2 (peptide sequence EGAMFLEAIPMSIPK)
T8 chain: EGAMFLEAIPMSIPK

[13] = target: T9, T3 (peptide sequence KKASEVSRRRRRGGK)
T9 chain: KKASEVSRRRRRGGK

[14] = target: T10, PAIN1 peptide (NH2-E(Edans) PMPPLCTSMK(Dabcyl)-COOH)
T10 chain: PMPPLCTSMK

EGAMFLEAIPMSIPK (CPI2-related peptide)
cross-reactivity with elastase (fluorescent signal) ([1]; 50 μg/ml of elastase, FIG. 3C): cross-reacted
cross-reactivity with elastase (fluorescent signal) ([1]; Five μg/ml of elastase, FIG. 3B): small response

H2N-PFPQANYITYC-OH (H-PFPQANYITYC-OH) [HE1]
HRP release signal at 405 nm [2]: very minor increase
HRP release signal at 405 nm [3]: clear signal
cross-reaction with bacterial proteases [4]: not cross react

NH2-E(Edans) PMPPLCTSMK(Dabcyl)-COOH ({E(Edans)}-PMPPLCTSMK(Dabcyl″)-OH) [PAIN1]
relative fluorescence response [5]: high response
relative fluorescence response [6]: lower but significant responses
relative fluorescence response [7]: lower but significant responses

EQADALHDQASALK (Pseudomonas aeruginosa E8-related peptide)
cross-reactivity with elastase (fluorescent signal) ([1]; 50 μg/ml of elastase, FIG. 3C): cross-reacted

B1: human neutrophil elastase (protein)
chain: IVGGRRARPHAWPFMVSLQLRGGHFCGATLIAPNFVMSAAHCVANVNVRAVRVVLGAHNLSRREPTRQVFAVQRIFENGYDPVNLLNDIVILQLNGSATINANVQVAQLPAQGRRLGNGVQCLAMGWGLLGRNRGIASVLQELNVTVVTSLCRRSNVCTLVRGRQAGVCFGDSGSPLVCNGLIHGIASFVRGGCASGLYPDAFAPVAQFVNWIDSIIQ
FRET peptide cleavage (fluorescent signal), 500 ng/ml elastase [8]: no signal on any of the peptides when tested with 500 ng/ml of elastase
FRET peptide cleavage (fluorescent signal), 500 ng/ml elastase [9]: no signal on any of the peptides when tested with 500 ng/ml of elastase
FRET peptide cleavage (fluorescent signal), 500 ng/ml elastase [10]: no signal on any of the peptides when tested with 500 ng/ml of elastase
FRET peptide cleavage (fluorescent signal), 50 ug/ml elastase [10]: 50 µg/ml of elastase cross-reacted with both peptides CPI2 and E8
FRET peptide cleavage (fluorescent signal), 500 ng/ml elastase [11]: no signal on any of the peptides when tested with 500 ng/ml of elastase
FRET peptide cleavage (fluorescent signal), 500 ng/ml elastase [12]: no signal on any of the peptides when tested with 500 ng/ml of elastase
FRET peptide cleavage (fluorescent signal), 5 ug/ml elastase [12]: Five µg/ml of elastase cross-reacted with the broad spectrum peptide CPI2 (small response)
FRET peptide cleavage (fluorescent signal), 50 ug/ml elastase [12]: 50 µg/ml of elastase cross-reacted with both peptides CPI2 and E8
FRET peptide cleavage (fluorescent signal), 500 ng/ml elastase [13]: no signal on any of the peptides when tested with 500 ng/ml of elastase

B2: papain (in ACCUZYME, a papain-containing debriding ointment, DPT Laboratories) (protein)
chain: IPEYVDWRQKGAVTPVKNQGSCGSCWAFSAVVTIEGIIKIRTGNLNEYSEQELLDCDRRSYGCNGGYPWSALQLVAQYGIHYRNTYPYEGVQRYCRSREKGPYAAKTDGVRQVQPYNEGALLYSIANQPVSVVLEAAGKDFQLYRGGIFVGPCGNKVDHAVAAVGYGPNYILIKNSWGTGWGENGYIRIKRGTGNSYGVCGLYTSSFYPVKN
FRET peptide cleavage (relative fluorescence over one hour), 10 ul of 120 mg/ml ACCUZYME [14]: A high response was seen with papain ointment
